Experimental findings from article PMC4086270 are described below.

Assay [1] deals with endogenous SET (mouse (endogenous in adult mouse brain slices)) (UniProt Q9EQU5). Kind of assay: co-IP; lysates of adult mouse brain slices incubated 5 h 30 min with or without recombinant SET (4 μM); IP with polyclonal anti-SET (recognises endogenous and recombinant SET) and protein A Sepharose, overnight 4°C; Hepes 10 mM, NaCl 150 mM, CaCl2 2 mM, Triton X-100 1% pH 7.4; blot for total PP2A C subunit, then methyl-PP2A after stripping.
Chain of UniProt Q9EQU5 (Q9EQU5 whole entry): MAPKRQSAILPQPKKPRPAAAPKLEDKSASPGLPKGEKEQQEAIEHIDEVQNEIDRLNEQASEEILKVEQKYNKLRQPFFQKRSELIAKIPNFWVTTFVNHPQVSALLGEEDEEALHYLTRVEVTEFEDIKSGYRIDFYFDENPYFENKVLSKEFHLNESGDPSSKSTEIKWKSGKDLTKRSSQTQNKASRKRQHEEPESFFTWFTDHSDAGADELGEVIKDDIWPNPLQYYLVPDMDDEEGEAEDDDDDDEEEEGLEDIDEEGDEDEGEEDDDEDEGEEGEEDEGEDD

Assay [2] concerns the target PP2A (total PP2A, detected with an anti-PP2A C subunit antibody) (mouse (endogenous in adult mouse brain slices)) (UniProt P63330).
Chain of UniProt P63330 (P63330 whole entry): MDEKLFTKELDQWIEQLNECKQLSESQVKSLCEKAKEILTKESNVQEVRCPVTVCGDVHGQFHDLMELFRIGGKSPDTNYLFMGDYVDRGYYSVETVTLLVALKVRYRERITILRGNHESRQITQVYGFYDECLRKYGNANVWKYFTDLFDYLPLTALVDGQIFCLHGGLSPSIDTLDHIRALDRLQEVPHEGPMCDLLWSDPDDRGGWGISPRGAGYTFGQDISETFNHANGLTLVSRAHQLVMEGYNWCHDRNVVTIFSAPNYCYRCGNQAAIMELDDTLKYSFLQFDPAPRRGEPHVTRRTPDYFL
Assay [3] has the same target. This is another data set of the same source.

With “methylated PP2A (from UniProt P63330 1-309) (enzyme)”, the ratio of methyl-PP2A to total PP2A co-immunoprecipitated with SET in assay [1] worked out at 2.18.
In the case of “recombinant HA-tagged SET protein fused to the Penetratin vector (from UniProt Q01105 1-290) (natural protein)”, in assay [2], the ratio of methyl-PP2A to total PP2A by western blotting of brain slice lysates after 5 h 30 min of recombinant SET internalization, percent of the control ratio (% of control ratio) turned out to be 83.6. In addition, the PP2A activity (release of p-nitrophenol) on PP2A immunoprecipitated from brain slices containing internalized recombinant SET, percent of control in assay [3] is 84 % of control.
